In the nanobody polyreactivity screen of Harvey et al. (2022):

Assay: yeast display, Sf9 membrane polyspecificity reagent, FACS + sequencing; frameworks hold sequencing errors
Summary of the method: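 Nanobodies from a synthetic yeast display library (Saccharomyces cerevisiae BJ5465), induced 36–48 hours with galactose, were stained 1 hour at 4 °C with 10% biotinylated, detergent-solubilized Sf9 membrane reagent, enriched on streptavidin microbeads, then FACS-sorted. Anti-HA (expression) and streptavidin (reagent binding) fluorescence set low and high (top ~1%) gates. Polyreactivity labels come from the gate of origin. Genes were colony-PCR amplified, MiSeq 2 × 250 sequenced and filtered by CDR length.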

Sequence	polyreactivity (PSR sort gate)
QVQRVESGGGLVQAGGSLRLSCAASGSIFGPNTIGWSRQAPGKERDLVAAITRSGGSTYYADSVKGRFTISRDNAKNTVYLQMNSLKPEDTAVYYCAVGDGFEYDWGQGTQVTVSS	low polyreactivity
QVQRVESGGGLVQAGGSLRLSCAASGSIFKYYTMGLYRPAPGKERELVAYISSGGSTKYADSVKGRFTNSRDNAKNTVYLQMNSLKPEDTAVYYCAKRYYYFYPDYDFLGQGTQVTVSS	high polyreactivity
QVQRVESGGGLVQAGGSLRLSCAASGSIFRTYAMRWYRQAPGTERELVAAITSRGSSTYYADSVKGRFTISRDNAKNTVYLQMNSLKPEDTAVYSCPADYRTSYKGVLFSMYYWGQGTQVTVSS	high polyreactivity
QVQRVESGGGLVQAGGSLRLSCAASGSIFYRNVMGWYRPAPGKERELVAAISSGTSTYYADSVKGRFTISRDNAKNTVYLQMTSLKPEDPAVYYCAAEGPHYYGQRWYYGVDYWGQGTQVTVSS	low polyreactivity
QVQRVESGGGLVQAGGSLRLSCAASGSNFDKNPMGWYRQAPGKEREVVAAISRSGGSTNYADSVKGRFTISRDNAKTTDFLLMYSVKPEDTAVYYFAAQSRYWTYDSWGQGTQVNVSS	high polyreactivity
QVQRVESGGGLVQAGGSLRLSCAASGSTFLVNGMGWNRPAPGKERELVASITRDSSTYADSVKGRFTISRDNAKNTVYLQMNSLKPEDTAVYYCAATSRRRWSQQQGYGYYYWGQGTQVTVSS	high polyreactivity
QVQRVESGGGLVQAGGSLRLSCAASGYILPRYAMGWYIQAPGKERELVAAITSGGITSYADSVKGRFTISRDNAKNTVYLQMNSLKPEDTAVYYCAADWYVIYDYWGQGTQVTVSS	low polyreactivity
QVQRVESGGGLVQAGGSLRLSCAASGYTFEAYAMGWYRQAPGKERELVAAITINGGSTYYADSVKGRFTISRDNAKNTVYLQMNSLKPEDTAVYYCAADLFHRAGWYFAYGHWGLGTQVTVSS	low polyreactivity
QVQRVESGGGLVQAGGSLRLSCAASGYTFYFYDMGWYRQAPGKERELVAAITSSGGSTYYADSVKGRFTISRDNAKNTVYLQMNSLKPEDTAVYYCNALITYSSDYWGQGTQVTVSS	low polyreactivity
QVQRVESGGGLVQAGGSLRLSCAASGYTLGGYAMGWYRQAPGKERELVAAISSSGTSTYYADSVKGRFTISRDNAKNTVYLQMNSLKPEDTAVYYCNAYYLTYSAGDYWGQGTQVTVSS	low polyreactivity
QVQRVESGGGLVQAGGSLRLSCAASRITFSVNALRWYRHAPGKDRELVASISSGGSTNYADSVQGGFTISRDNAKNTVDLQMNSLKQEDTAVYYCNADVGFGSMDYCGQGTQVTVSS	low polyreactivity
QVQRVESGGGLVQAGGSLRLSCAASRITFTVNAMGWYRQAPGKERELVAAISWSGGSTYYADSVKGRFTISRDIAKNTVYLQMNSLKPEDTAVYYCNAVLYRFAYNYWGQGTQVTVSS	low polyreactivity
QVQRVESGGGLVQAGGSLRLSCAATGFTSGDYAMGWYRQAPGKERELVAAIDSDGSTNYADSVKGRFTISRDNAKNTVYLQMNSLKPEDTADYYCNAKRYGFFYWQGDYWGQGTQVTVSS	low polyreactivity
QVQRVESGGGLVQAGGSLRLSCDASGFTFVPYAMGWYRQAPGKERELVAAISWRRGSTYYADSVKGRFTISRDNAKNTVYLQMNSLKPEDTAVYYCARKGYHYSETSAIFALYDYWGQGTQVTVSS	high polyreactivity
QVQRVESGGGLVQAGGSLRLSCPASGFTFSRNVMGWYRQAPGKERELVADITLSGASTYYADSVKGRFTISRDNAKNTVYLQMNSLKPEDTAVYYCAADPYHWRWGWRHDYWGQGTQVTVSS	low polyreactivity
QVQRVESGGGLVQAGGSLRLTCAASGFTFVYYPMGWYRQAPGKVREWVAVISYSGTNTRYADSVKRRFTISRDNAKITVYLQMNSLKPEDTAVYYCAAEIYYVSWYDYWGQGTQVTVSS	high polyreactivity
QVQRVESGGGLVQAGGSLRLTCAASGRTFPGYAMGCYRQAPGKERELVAGISYRGGSTYYADSVKGRFTISRDNANNTVYLQMNSLKPEDSAVYYCALDYSRHKGDYWGQGTQVTVSS	low polyreactivity
QVQRVESGGGLVQARGSLRLSCAPSGSIFPYYAMGCYRPAPGKERELVAGISRRGGTTYYADSVKGRLTISRDNAKNTVYIQMHSLKPEDTAVYYCAARYGPYVDRYGYCGQGTQVTVSS	high polyreactivity
QVQRVESGLGLVQAGCSLRLTCAASGRIFDGYAMGWYRPARGKERELVATISSGGFTYYADSVKGSFTISRDNAKNTFYLQMNILKPEDTAVYYCAATPICSGGWGDYWGQGTQVTVSS	low polyreactivity
QVQRVESWGGLVQAGCRLRLSCAASGIFRRYAMGWYRQAPGKERELVAAISSSGGSTDYADSVKGRFTISRDNAKNTVYLLMNSLKPEDTAVYYCNAYDLHGWWSYAYDYWGQGTQVTVSS	high polyreactivity
QVQRVETGGGLVQAGGSLRLSSAASVLTFKWYAMGWYRQSPGKERELVAAISRDGSTYYGDSVKVRFTISRDNAKNTVYLQMNSLKPEDTAVYYCAADIWPSSLLADEYDYWGQGTQVTVSS	high polyreactivity
QVQSVESAGVLVQAGGSLRLSCAASGFTFTWYAMGWYRKAPGKERELVATISRSGGRTYYADSVKGRFTISRDNAKNTVYLQMNSLKPEDTAVYYCAADTRNSPRYDYWGQGTQVTVSS	high polyreactivity

Sequence	polyreactivity (PSR sort gate)
QVQSVESCGGLVQAGRSLRLSCAPSGSIFADYAMGWYSQAPGKERELVAVISRRGGTTYYADSVKGRFTISRDNAKNSVYLQMNSLKPEDTAVYYCAARRSFNEYDYWGKGTQVTVSS	high polyreactivity
QVQVEESGGGFDQAGGSLRLSCAASGSIFYYNAMGWYRQAPGKERELVAAISGRTGSTYYADSVKGRFTISRDNAKNTVYLQMNSLKPEDTAVYYCNALFLGYYYYWGQGTQVTVSS	high polyreactivity
QVQVVDSGGGLVQAGGSLRLSCAASGRTFIGNAMGWYRQAPGKERELVATITTSAGTTYYADSVKGRITISRDNAKITVYVQMLSLKPEDTAVYYCAADASQSEGDYWGQGTQVTVAS	high polyreactivity
QVQVVESGAGLVQAGGILRLRCASSGFILYPNAMGWYRQAPGKERELVAAITESDGITYYADSVKGRFTISRDNAKNTVYLQMNSLKPEDTAVYYCNTGFSYTYDYWGQGTQVTVSS	low polyreactivity
QVQVVESGGCLVQAGGSLRLSCAASGRMFRRYAMGWYRQAPGKERELVAAISSGGSTYYADSVKGRFTISRDNAKNTVYLQMNSLKPEDTAVYYCNAKVGAYLNYGYWGQGTQVTVSS	low polyreactivity
QVQVVESGGGIVHAGGSLRLSCAASGFIFLVNGMVWYRQAPGKERELVAAISFDGGSTYADSVKGRFTISRDNAKNTVYLLMTSLKPEDTAVFYCATDVRGVDGEDYSWGQGTQVTVSS	low polyreactivity
QVQVVESGGGLDQAGGSLRLSCAASGRIFFYYGMGWYRQAPGTERELVASISRGGSTTYADSVKGRFTISRDNAMKTVYLQMNSLKPEDSAVYYCARRYTQIYSSNYGYWGQGTEVTVSS	high polyreactivity
QVQVVESGGGLFQAGGSLRLSSAASGSIFARNALGWYRQAPGKERDLVAGITRSTGDTYYADSVKGRFTISRDNAKYTVSFQMNSLKQEDTAVYYCARDGRRTPYKYEYWGQGTQVTVSS	low polyreactivity
QVQVVESGGGLVQAGASLRLSCAASGRTCLHKAMGWYRQAPGKERELVAAIDSRGTTHYADSVKGRFTISRDNAKNTVYLQMNSLKPEDTAVYYCAARPTRGHWWYAYWGQGTQVTVSS	low polyreactivity
QVQVVESGGGLVQAGGSLGLSCAASGGTFGYYAMGWYRQAPGKERELVAAINRSDGGTYYADSVKGRFTISRDKAKNTVYLQMTSLKPEDTAVYYCNADDFYYDEPYDYWGQGTQVTVSS	low polyreactivity
QVQVVESGGGLVQAGGSLRLRCAASGRSFVRNAMGWYRQAPGKEREFVAAINSGGSTYYADSVKGRFTISRDNAKNTVYLQMNSLKPEDTAVYYCAAELHIYYSWYWYDYWGQGTQVTVSS	high polyreactivity
QVQVVESGGGLVQAGGSLRLSCAASGFISSYYAMGWYRQAPGKERELVAAITSGGRTYYADSVKGRFTISRDNAKNTVYLQMNSLKPEDTAVYYCAKYSRTKAFDYWGQGTQVTVSS	high polyreactivity
QVQVVESGGGLVQAGGSLRLSCAASGRIFAKYAMGWYIQAPGKERELVAAIDLSDGSTSYADSVKGRFTISRDNAKNTVYLQMNSLKPEDTAVYYCAKTWANVYAGAHDYWGQGTQVTVSS	low polyreactivity
QVQVVESGGGLVQAGGSLRLSCAASGRIFTGYAMGWYSQAPGTERELVAAISRGGSTNYADSVKGRFTISRDNAKNTVYLQMNSLKPEDTAVYYCAAGVHWDRGDYWGQGTQVTVSS	low polyreactivity
QVQVVESGGGLVQAGGSLRLSCAASGRTFGVYAMGWSRQAPGKERELVAVINRSGGSTYYADSVKGRFTISRDNAKYTVYLQMNSLNPEDTAVYSCDKASAYSAYDDHDDYWGHGTQVTVSS	high polyreactivity
QVQVVESGGGLVQAGGSLRLSCAASGSIFPFYVMGWYRQAPGKEREFVATISSRGGSTYYADSVKGRFTISRDNAKNTVYLQMNSLKPEDTAVYYCAAGWYRNDWGQRLHTYYYWGQGTQVTVSS	high polyreactivity
QVQVVESGGGLVQAGGSLRLSCAASGSTFVRNAMGWYRQAPGKDRELVAAITTSGARTYYADSVKGRFTISRDNAKHTVYLQMNSLKPEDTAVYYCAAEYKGRTYRFDYWGQGTQVTVSS	low polyreactivity
QVQVVESGGGLVQAGGSLRLSCAASGYIFDYYAMGWYRQAPGKERELVAAISSSGGTTYYADSVKGRFTISRDNAKNTVYLQMNSLKPEDTAVYYCAADAVLPRSDYWGQGTQVTVSS	high polyreactivity
QVQVVQSGGGLVQAGGSLSLSCAASGNTFYGYAMGWYRQAPGNESEFVASITLSGDSTYYADSVKGRFTISRDNAQNTVYLQMNSLKPEDTAVYYCAGVYTYPLGYYHYTYDYWGQGTQVTVSS	low polyreactivity
QVRLVESGGGLDQAGGSLPLSCAASGRTFEPNAMGWYRQAPGKERELVAAITSAGITHYADSVKGRFTISRDNAKNTVYLQMNSLKPEDTAVYYCRLQTGIIDRLRRYNYWGQGTQVTVSS	high polyreactivity
QVRLVESGGGLVKAGGSLRLSSAASGSTFWSYAMGCYRQATGKERELVAAISWSGDSTYYADSVKGRFTISRDNAKNTVYLQMNSLKPEDTAVYYCAADYVGGSYEYEYWGQGTQVTVSS	low polyreactivity
